± gives the uncertainty stated by the source.
B1: Protein piccolo, residues 1058 to 1114; numbered along this chain, Q9Y6V0 (parent)
chain: TCPLCKTELNIGSKDPPNFNTCTECKNQVCNLCGFNPTPHLTEIQEWLCLNCQTQRA
B2: Chromodomain-helicase-DNA-binding protein 4, residues 444 to 496; numbered along this chain, Q14839 (parent)
chain: EDDHHMEFCRVCKDGGELLCCDTCPSSYHIHCLNPPLPEIPNGEWLCPRCTCP

Variants of: B1
Assay: abundance fitness (aPCA) (normalised: wild type 0, dead -1); higher = more abundant; growth selection in yeast, the domain comes from the species named
Details: Homo sapiens

| Variant | abundance fitness |
| --- | --- |
| TCPLCKTELNIGSKDPPNFNTCTECKNQVCNLCGFNPTPHLTEIQEWPCLNCQTQRA [L48P] | -0.318 ± 0.17 |
| TCPLCKTELNIGSKDPPNFNTCTECKNQVCNLCGFNPTPHLTEIQEWLCLNCQVQRA [T54V] | -0.198 ± 0.14 |
| TCPLCKTELNIGSKDPPNFNTCTECKNQVCNLCGFNPTPHKTEIQEWLCLNCQTQRA [L41K] | 0.176 ± 0.17 |
| TCPLCKTELNIGSKDPPNFNTCTECKNKVCNLCGFNPTPHLTEIQEWLCLNCQTQRA [Q28K] | -0.265 ± 0.2 |
| TCPLCKTESNIGSKDPPNFNTCTECKNQVCNLCGFNPTPHLTEIQEWLCLNCQTQRA [L9S] | -0.042 ± 0.082 |
| TCPLCKTEQNIGSKDPPNFNTCTECKNQVCNLCGFNPTPHLTEIQEWLCLNCQTQRA [L9Q] | -0.128 ± 0.11 |
| TCPLCKTELNIGSKDPPNFNTCEECKNQVCNLCGFNPTPHLTEIQEWLCLNCQTQRA [T23E] | -0.043 ± 0.14 |
| GCPLCKTELNIGSKDPPNFNTCTECKNQVCNLCGFNPTPHLTEIQEWLCLNCQTQRA [T1G] | -0.205 ± 0.27 |
| TCPLCKTELNIGSKDPPNFNTCTECKNQVCNLCGFNPTPHLTENQEWLCLNCQTQRA [I44N] | -0.144 ± 0.24 |
| TCPLNKTELNIGSKDPPNFNTCTECKNQVCNLCGFNPTPHLTEIQEWLCLNCQTQRA [C5N] | -0.693 ± 0.084 |
| TCPLCKTELNIGSKDPPNFNTCTECKNQVCNLCGFNPTLHLTEIQEWLCLNCQTQRA [P39L] | -0.001 ± 0.084 |
| TCPLCKTELNIGSKDPPNFNTCTECKNQVCNLAGFNPTPHLTEIQEWLCLNCQTQRA [C33A] | -0.588 ± 0.12 |
| TCPLCKTELNITSKDPPNFNTCTECKNQVCNLCGFNPTPHLTEIQEWLCLNCQTQRA [G12T] | 0.035 ± 0.14 |
| TCPLCKTELNIGSKVPPNFNTCTECKNQVCNLCGFNPTPHLTEIQEWLCLNCQTQRA [D15V] | 0.001 ± 0.087 |
| TCPLCKTELNIGSKDPPNFNTCTECKCQVCNLCGFNPTPHLTEIQEWLCLNCQTQRA [N27C] | 0.169 ± 0.18 |
| TCPLCKTELNIGSKDPPNFNTCTECKNQVCNLCIFNPTPHLTEIQEWLCLNCQTQRA [G34I] | -0.885 ± 0.28 |
| TCPLCKTELNIGSKDPPNFNTCTECKNQVCNLCGFNPTPHLTEIQEALCLNCQTQRA [W47A] | -0.102 ± 0.14 |
| TCPLCKTELNIGSKDPPNFNTCTECKNQVCNLCGFNPTPHLGEIQEWLCLNCQTQRA [T42G] | 0.122 ± 0.1 |
| TCPLCKTELNIGSKDPPNFNTCTECKNQGCNLCGFNPTPHLTEIQEWLCLNCQTQRA [V29G] | -0.198 ± 0.078 |
| TCPLCKTELNIGSKDPPNFNTCTECKNQSCNLCGFNPTPHLTEIQEWLCLNCQTQRA [V29S] | -0.265 ± 0.068 |
| TCPLCKTELTIGSKDPPNFNTCTECKNQVCNLCGFNPTPHLTEIQEWLCLNCQTQRA [N10T] | 0.062 ± 0.11 |
| TCPLCKTELNIGSKDPPNFNTCTECKNQVCNGCGFNPTPHLTEIQEWLCLNCQTQRA [L32G] | 0.279 ± 0.088 |
| TCPLCKTELNIGSKDPPNFNTCTECKNQVCNLCGFNPTPHLTEINEWLCLNCQTQRA [Q45N] | 0.016 ± 0.29 |
| TCPLCKTELNIGSKDPVNFNTCTECKNQVCNLCGFNPTPHLTEIQEWLCLNCQTQRA [P17V] | -0.428 ± 0.088 |
| TCPLCKTCLNIGSKDPPNFNTCTECKNQVCNLCGFNPTPHLTEIQEWLCLNCQTQRA [E8C] | -0.56 ± 0.098 |

Variants of: B2
Assay: as above
Details: Homo sapiens

| Variant | abundance fitness |
| --- | --- |
| C47A | -0.804 ± 0.074 |
| C47T | -0.732 ± 0.063 |
| C47K | -0.503 ± 0.074 |
| C47E | -0.606 ± 0.094 |
| C47V | -0.605 ± 0.055 |
| C47Y | -0.78 ± 0.057 |
| C47N | -0.559 ± 0.087 |
| C47P | -0.552 ± 0.043 |
| C47G | -0.652 ± 0.046 |
| C47F | -0.803 ± 0.055 |
| C47I | -0.697 ± 0.082 |
| C47Q | -0.627 ± 0.074 |
| C47R | -0.664 ± 0.041 |
| C47H | -0.36 ± 0.052 |
| C47W | -0.766 ± 0.056 |
| C47L | -0.639 ± 0.047 |
| C47S | -0.598 ± 0.056 |
| N42I | -0.096 ± 0.055 |
| N42S | -0.063 ± 0.05 |
| N42G | 0.038 ± 0.052 |
| N42K | 0.081 ± 0.063 |
| N42P | -0.065 ± 0.055 |

| Variant | abundance fitness |
| --- | --- |
| N42Q | 0.005 ± 0.069 |
| N42R | -0.022 ± 0.053 |
| N42D | -0.085 ± 0.054 |
| N42Y | -0.197 ± 0.049 |
| N42A | 0.037 ± 0.06 |
| N42V | 0.032 ± 0.044 |
| N42L | -0.077 ± 0.047 |
| N42H | -0.094 ± 0.055 |
| N42F | -0.219 ± 0.053 |
| N42C | -0.061 ± 0.054 |
| N42M | -0.127 ± 0.06 |
| N42W | -0.253 ± 0.058 |
| P48Y | -0.567 ± 0.06 |
| P48M | -0.363 ± 0.072 |
| P48T | -0.27 ± 0.047 |
| P48I | -0.941 ± 0.12 |
| P48C | -0.815 ± 0.079 |
| P48S | -0.21 ± 0.045 |
| P48R | -0.352 ± 0.042 |
| P48F | -0.717 ± 0.078 |
| P48G | -0.284 ± 0.053 |
| P48H | -0.278 ± 0.055 |

| Variant | abundance fitness |
| --- | --- |
| P48W | -0.349 ± 0.051 |
| P48A | -0.155 ± 0.046 |
| P48L | -0.622 ± 0.042 |
| P48N | -0.54 ± 0.081 |
| P48E | -0.042 ± 0.059 |
| P48V | -0.504 ± 0.051 |
| P48D | -0.102 ± 0.05 |
| P48K | -0.397 ± 0.051 |
| G43E | -0.07 ± 0.047 |
| G43F | -0.188 ± 0.058 |
| G43D | -0.151 ± 0.057 |
| G43V | -0.075 ± 0.053 |
| G43C | -0.16 ± 0.054 |
| G43N | -0.068 ± 0.078 |
| G43K | 0.03 ± 0.07 |
| G43I | -0.144 ± 0.047 |
| G43A | -0.079 ± 0.043 |
| G43M | -0.195 ± 0.067 |
| G43R | -0.044 ± 0.059 |
| G43S | -0.061 ± 0.05 |
| G43H | -0.13 ± 0.067 |
| G43L | -0.201 ± 0.049 |

| Variant | abundance fitness |
| --- | --- |
| G43Q | -0.032 ± 0.074 |
| G43P | -0.287 ± 0.058 |
| P53H | 0.616 ± 0.46 |
| P53S | -0.455 ± 0.2 |
| P38V | -0.113 ± 0.058 |
| P38T | -0.003 ± 0.05 |
| P38W | -0.172 ± 0.08 |
| E39S | 0.021 ± 0.044 |
| E39V | -0.025 ± 0.05 |
| E39P | -0.152 ± 0.049 |
| E39T | 0.025 ± 0.051 |
| E39F | -0.056 ± 0.063 |
| E39N | 0.026 ± 0.058 |
| E39I | -0.026 ± 0.045 |
| E39D | -0.292 ± 0.099 |
| E39K | 0.121 ± 0.08 |
| E39Y | -0.201 ± 0.068 |
| E39A | 0.011 ± 0.073 |
| E39L | -0.189 ± 0.048 |
| E39R | -0.09 ± 0.057 |
| E39W | -0.35 ± 0.086 |
| E39Q | -0.052 ± 0.074 |

| Variant | abundance fitness |
| --- | --- |
| E39M | -0.095 ± 0.071 |
| E39H | -0.132 ± 0.058 |
| E39G | -0.056 ± 0.06 |
| E39C | -0.178 ± 0.057 |
| I40C | 0.019 ± 0.048 |
| I40E | 0.056 ± 0.092 |
| I40F | -0.057 ± 0.07 |
| I40N | -0.066 ± 0.057 |
| I40D | -0.152 ± 0.11 |
| I40G | -0.007 ± 0.059 |
| I40V | 0.055 ± 0.043 |
| I40L | 0.01 ± 0.041 |
| I40H | 0.017 ± 0.052 |
| I40Q | 0.01 ± 0.067 |
| I40K | 0.11 ± 0.065 |
| I40S | -0.023 ± 0.044 |
| I40W | -0.041 ± 0.071 |
| I40R | 0.151 ± 0.052 |
| I40T | -0.005 ± 0.05 |
| I40M | -0.106 ± 0.067 |
| I40P | 0.112 ± 0.052 |
| I40A | 0.07 ± 0.06 |
